# Ends that are not written are not given here. * marks the point of attachment. Biotin = O=C1N[C@H]2[C@H](CS[C@H]2CCCCC(=O)*)N1
# T1: His-PDK1 (Myc-PDK1 with an N-terminal hexahistidine sequence, from Sf21 insect cells) (human, UniProt O15530 1-556)
# T1 construct: Purified by Ni-NTA agarose, >90% homogeneous; also called His-tagged PDK1
# T1 sequence: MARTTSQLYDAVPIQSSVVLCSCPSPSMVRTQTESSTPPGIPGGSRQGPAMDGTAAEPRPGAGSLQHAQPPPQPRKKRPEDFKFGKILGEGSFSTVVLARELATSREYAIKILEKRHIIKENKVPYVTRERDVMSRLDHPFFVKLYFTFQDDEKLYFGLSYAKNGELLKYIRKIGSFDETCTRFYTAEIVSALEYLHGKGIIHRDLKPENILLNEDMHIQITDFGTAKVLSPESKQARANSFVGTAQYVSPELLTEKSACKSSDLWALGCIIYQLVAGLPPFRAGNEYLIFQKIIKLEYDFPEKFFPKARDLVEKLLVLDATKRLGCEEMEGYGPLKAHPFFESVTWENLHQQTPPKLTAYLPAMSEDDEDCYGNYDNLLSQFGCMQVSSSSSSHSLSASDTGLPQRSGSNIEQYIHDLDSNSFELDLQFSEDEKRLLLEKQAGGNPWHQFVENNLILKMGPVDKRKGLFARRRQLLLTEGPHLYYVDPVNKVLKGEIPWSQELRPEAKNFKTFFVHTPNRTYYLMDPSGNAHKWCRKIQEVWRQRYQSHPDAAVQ
# Tests used:
# [1] = biological target: T1, His-PDK1 (Myc-PDK1 with an N-terminal …); experiment: SPR, His-PDK1 over the biotinylated peptide on Sensor Chip SA, steady state
# [2] = biological target: T1, His-PDK1 (Myc-PDK1 with an N-terminal …); experiment: SPR competition: 0.5 µM His-PDK1 mixed with 0-3 µM free Region B peptide, injected over the immobilised peptide
# [3] = biological target: T1, His-PDK1 (Myc-PDK1 with an N-terminal …); experiment: SPR competition with the immobilised Region B peptide
# [4] = biological target: T2, GST-MSK1 (UniProt O75582 1-802); experiment: GST pull-down from 293 cells, PDK1 immunoblot and activity
# T2 construct: not shown: glutathione S-transferase (GST) tag
# T2 sequence (O75582 whole entry): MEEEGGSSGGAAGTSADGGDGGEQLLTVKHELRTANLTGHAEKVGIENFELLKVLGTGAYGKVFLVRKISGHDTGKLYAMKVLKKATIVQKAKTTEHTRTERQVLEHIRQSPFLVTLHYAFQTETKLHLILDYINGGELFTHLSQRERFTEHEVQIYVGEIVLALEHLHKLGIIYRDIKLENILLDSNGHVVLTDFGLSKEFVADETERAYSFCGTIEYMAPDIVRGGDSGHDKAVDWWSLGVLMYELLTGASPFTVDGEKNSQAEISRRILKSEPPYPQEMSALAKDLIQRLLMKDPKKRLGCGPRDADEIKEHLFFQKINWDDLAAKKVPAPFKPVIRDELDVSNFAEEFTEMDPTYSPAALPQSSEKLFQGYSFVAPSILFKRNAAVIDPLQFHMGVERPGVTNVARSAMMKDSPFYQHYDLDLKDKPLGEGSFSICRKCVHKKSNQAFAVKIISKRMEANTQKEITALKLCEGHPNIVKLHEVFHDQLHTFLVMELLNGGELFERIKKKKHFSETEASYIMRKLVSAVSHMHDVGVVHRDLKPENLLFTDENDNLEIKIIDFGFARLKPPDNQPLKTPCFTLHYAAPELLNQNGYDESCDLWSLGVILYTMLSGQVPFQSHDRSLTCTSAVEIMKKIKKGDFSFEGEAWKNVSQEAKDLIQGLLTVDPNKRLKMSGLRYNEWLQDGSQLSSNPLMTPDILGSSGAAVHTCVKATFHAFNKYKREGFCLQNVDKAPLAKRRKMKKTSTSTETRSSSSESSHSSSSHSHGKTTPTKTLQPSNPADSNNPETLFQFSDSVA
binder,measurement,setting,value
"REPRILSEEEQEMFRDFDYIADWC(Biotin) (also called Region B peptide, biotinylated) [immobilised and biotinylated 24 residue synthetic peptide corresponding to the Region B peptide]",Kd,[1],800 nM
REPRILSEEEQEMFRDFDYIADWC (also called free peptide; wild type peptide) [Region B peptide (24 residue synthetic peptide corresponding to Region B of PIF)],Kd,[2],1500 nM
REPRILSEEEQEMFRDFAYIADWC (Range 961-984 is worked out from 'C-terminal 24 amino acids') [D978A-Region B peptide],fold less strongly than the Region B peptide,[3],10 fold
"endogenous PDK1 of 293 cells (enzyme, UniProt O15530 1-556, looked up, Two bands (63 and 66 kDa) both co-purified with GST-PIF; also called PDK1 immunoreactive bands at 63 kDa and 66 kDa) MARTTSQLYDAVPIQSSVVLCSCPSPSMVRTQTESSTPPGIPGGSRQGPAMDGTAAEPRPGAGSLQHAQPPPQPRKKRPEDFKFGKILGEGSFSTVVLARELATSREYAIKILEKRHIIKENKVPYVTRERDVMSRLDHPFFVKLYFTFQDDEKLYFGLSYAKNGELLKYIRKIGSFDETCTRFYTAEIVSALEYLHGKGIIHRDLKPENILLNEDMHIQITDFGTAKVLSPESKQARANSFVGTAQYVSPELLTEKSACKSSDLWALGCIIYQLVAGLPPFRAGNEYLIFQKIIKLEYDFPEKFFPKARDLVEKLLVLDATKRLGCEEMEGYGPLKAHPFFESVTWENLHQQTPPKLTAYLPAMSEDDEDCYGNYDNLLSQFGCMQVSSSSSSHSLSASDTGLPQRSGSNIEQYIHDLDSNSFELDLQFSEDEKRLLLEKQAGGNPWHQFVENNLILKMGPVDKRKGLFARRRQLLLTEGPHLYYVDPVNKVLKGEIPWSQELRPEAKNFKTFFVHTPNRTYYLMDPSGNAHKWCRKIQEVWRQRYQSHPDAAVQ",binding result,[4],no binding

# Reference: patent publication US20070196883A1 (UNIVERSITY OF DUNDEE, published 2007)
